± gives the half width of the 95% confidence interval.
Tests used:
[1] = folding stability dG unfold from trypsin proteolysis; higher = more stable
In short: (§1)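 Designed mini-proteins (under 80 residues, no cysteine) in a PA-tagged cDNA display construct were digested with trypsin and chymotrypsin. Each protease was used at 11 concentrations (threefold dilutions) plus a no-protease condition, followed by sequencing. K50 was inferred by Bayesian fitting of sequencing counts, and unfolding free energy was derived against a sequence-predicted unfolded-state K50 and a shared folded-state K50, per protease or combined. Only designs with AlphaFold2 dimer inter-PAE above 15 were kept.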

[2] = folding stability dG unfold (combined trypsin and chymotrypsin); higher = more stable
In short: as §1

[3] = folding stability dG unfold from chymotrypsin proteolysis; higher = more stable
In short: as §1

## SAEKKTVRVVLEITLPPGLKPGDTITVKIEVDGKVYEAKILRVEEVPPGQTVRIVLELPAEDVKITIEPSAG [r14_554_TrROS_Hall]
[1]
  folding stability dG unfold: 13.4 ± 0.331 kJ/mol
[2]
  folding stability dG unfold: 16 ± 0.297 kJ/mol
[3]
  folding stability dG unfold: 17 ± 0.335 kJ/mol

## SAGGEVKPGEEVEVEVLVLVRGEDGELYLVRVKMRFRVKEDGTVEMEVEVEVVRVPLSEEELKALLEASAGG [r13_544_TrROS_Hall]
[1]
  folding stability dG unfold: 18.5 ± 0.586 kJ/mol
[2]
  folding stability dG unfold: > 25.1 kJ/mol
[3]
  folding stability dG unfold: 25.1 ± 1.09 kJ/mol

## SITIMVDNLPPGATAEELASTLFNWIQQFGWEVTPIKITPMPDNWVTVEIEFKNNGKPIFRETIEFRPDASA [r9_953_TrROS]
[1]
  folding stability dG unfold: 10.1 ± 0.385 kJ/mol
[2]
  folding stability dG unfold: 13.6 ± 0.377 kJ/mol
[3]
  folding stability dG unfold: 14.9 ± 0.251 kJ/mol

## SAGGSAGGSAGGMIKIKLGDKWVDVAEVKEYPDSIIVYNPKTNTKITISKKNPEDPNILISAGGSAGGSAGG [r7_391_JUSTAS]
[1]
  folding stability dG unfold: 1.94 ± 0.377 kJ/mol
[2]
  folding stability dG unfold: 4.21 ± 0.879 kJ/mol
[3]
  folding stability dG unfold: 6.16 ± 0.339 kJ/mol

## SAGGSAGPDPKNKKIKVKVETFYLEDFGLKVEKIYIEGTGKPLLVFYFPDGSKLIINEDGTVKLIESAGGSA [r15_617_TrMRF]
[1]
  folding stability dG unfold: 7.5 ± 1.46 kJ/mol
[2]
  folding stability dG unfold: 12.1 ± 0.962 kJ/mol
[3]
  folding stability dG unfold: 13.9 ± 0.586 kJ/mol

## SAGGMKYLVTITITDPDTGQERVIEVEFPDMTPEEIKEAAEELAEEIASEQGLNLKVEVEVTPIPLLSAGGS [r8_185_JUSTAS]
[1]
  folding stability dG unfold: 16.5 ± 0.46 kJ/mol
[2]
  folding stability dG unfold: 14.9 ± 0.285 kJ/mol
[3]
  folding stability dG unfold: 14 ± 0.322 kJ/mol

## SAGGSAGGMIKITITVPPGVSPEFVREKIAPLGVEVLSVEPLPDGTHRVTIEIPPEITKNPELLSAGGSAGG [r6_470_JUSTAS]
[1]
  folding stability dG unfold: 7.04 ± 0.213 kJ/mol
[2]
  folding stability dG unfold: 5.95 ± 0.184 kJ/mol
[3]
  folding stability dG unfold: 4.93 ± 0.0962 kJ/mol

## SGSSYLPLEDVKTEWKKNPNSDVYNYTTFLQTPSGEPISVTYDPKTGKITFNLPPGTTWRPGKKSEVKLESA [r9_509_JUSTAS]
[1]
  folding stability dG unfold: 0.517 ± 0.669 kJ/mol
[2]
  folding stability dG unfold: 3.62 ± 0.669 kJ/mol
[3]
  folding stability dG unfold: 4.72 ± 0.962 kJ/mol

## SGLTNLRVEAELVPPGVLRVTFTEGGKPVYELTFTVVVPAPPVVEPVLLPNGVPALVVYDPATGKPVVYPSA [r9_343_TrMRF]
[1]
  folding stability dG unfold: 9.08 ± 0.544 kJ/mol
[2]
  folding stability dG unfold: 12 ± 0.335 kJ/mol
[3]
  folding stability dG unfold: 13.7 ± 0.46 kJ/mol

## SAGGSAGGSAGKPEVEVETRLIKIDEEKGYYLRVTRVRVKNEDGSEFEFLSIEIIPKEDLSAGGSAGGSAGG [r11_51_TrROS_Hall]
[1]
  folding stability dG unfold: 10.9 ± 0.41 kJ/mol
[2]
  folding stability dG unfold: 14.9 ± 0.297 kJ/mol
[3]
  folding stability dG unfold: 16.4 ± 0.218 kJ/mol

## SAGGSAGGSAGEVEFELTVKLTVTHPSGGKSEIEVPVKITLPVVDISKEILESNPEVVKKANSAGGSAGGSA [r18_114_TrMRF]
[1]
  folding stability dG unfold: 2.04 ± 0.46 kJ/mol
[2]
  folding stability dG unfold: -0.451 ± 1.26 kJ/mol
[3]
  folding stability dG unfold: -4.03 ± 1.38 kJ/mol

## SAGGSAGGSAGGSGMTLPIPLSELTTEEIRELTKPDEDLVIKTEEDEPVVIPYGEIKPESAGGSAGGSAGGS [r4_382_JUSTAS]
[1]
  folding stability dG unfold: 2.9 ± 0.293 kJ/mol
[2]
  folding stability dG unfold: 0.854 ± 0.322 kJ/mol
[3]
  folding stability dG unfold: -4.41 ± 1.26 kJ/mol

## SAGGSAGGSAGGSPPNMEPVETQEYQIGNDFIIKVDTYRMPDPDMYFVDIEITPDALKASAGGSAGGSAGGS [r4_163_TrROS]
[1]
  folding stability dG unfold: 3.43 ± 0.502 kJ/mol
[2]
  folding stability dG unfold: 5.35 ± 1.26 kJ/mol
[3]
  folding stability dG unfold: 7.6 ± 0.711 kJ/mol

## SAGGSAGGSAGGVSPEANIKEVSKDPKTGLTTSLAKDPNSDNEITITKDSSGNSSINISSAGGSAGGSAGGS [r10_450_JUSTAS]
[1]
  folding stability dG unfold: 0.505 ± 0.159 kJ/mol
[2]
  folding stability dG unfold: 3.4 ± 0.305 kJ/mol
[3]
  folding stability dG unfold: 4.54 ± 0.121 kJ/mol

## SKKKVTIEIEIVVRVPEGDELKNMTAEELAALLAEELGVEVEIVEVELVEYDEETGEYYVRIKVKITFPESA [r9_107_TrROS_Hall]
[1]
  folding stability dG unfold: 12.4 ± 0.711 kJ/mol
[2]
  folding stability dG unfold: 11.6 ± 0.586 kJ/mol
[3]
  folding stability dG unfold: 11.8 ± 0.544 kJ/mol

## SKYRILIHTPNPGMPPEEIIDELEEPGFKDVEVVDSPSELKELPPNYDIVIMFHNGQFQISIFPPEELDKSA [r9_750_TrROS]
[1]
  folding stability dG unfold: 1.32 ± 0.586 kJ/mol
[2]
  folding stability dG unfold: 3.92 ± 0.837 kJ/mol
[3]
  folding stability dG unfold: 5.86 ± 1.3 kJ/mol

## SAGGGSDTVPPVPKATITFTLPAESPEEAEAAAEEIARELEEEGGIPATATVTTDPETGTVTVTITLESAGG [r13_517_TrMRF]
[1]
  folding stability dG unfold: 4.06 ± 0.138 kJ/mol
[2]
  folding stability dG unfold: 3.58 ± 0.289 kJ/mol
[3]
  folding stability dG unfold: 2.81 ± 0.247 kJ/mol

## SAGGVWIEITFLMPAEQLLNFIKNLAEEFGYQVNIDVKIQPYPNGPMVTHEIEIKPLPPKVPEEDQESAGGS [r16_262_TrROS]
[1]
  folding stability dG unfold: 10.5 ± 0.544 kJ/mol
[2]
  folding stability dG unfold: 15.1 ± 0.669 kJ/mol
[3]
  folding stability dG unfold: 16.7 ± 0.418 kJ/mol

## SAGGSAGGSAGGMKIKNAEIVEVKEENGKKTLLVKNKETGKYYKITIDDNKITIEEVKVPSAGGSAGGSAGG [r7_940_TrROS_Hall]
[1]
  folding stability dG unfold: 9.25 ± 1.34 kJ/mol
[2]
  folding stability dG unfold: 16.2 ± 2.18 kJ/mol
[3]
  folding stability dG unfold: 17.3 ± 0.544 kJ/mol

## SAGGSATPEEIAKKFFENHPELEPVEVKLEKFKIPGLKIWVVKVEITLKFKDNSKKKIPVVAVFPVSAGGSA [r15_266_TrMRF]
[1]
  folding stability dG unfold: 8.44 ± 0.276 kJ/mol
[2]
  folding stability dG unfold: 11.4 ± 0.31 kJ/mol
[3]
  folding stability dG unfold: 12.6 ± 0.163 kJ/mol

## SAPKLEIEEVHVNPNDGMVMITFQIDNLPPGLKITIKPKNGKPRRWTGEPGKPIMFMIPPGVDDIEIEWSAG [r14_671_TrROS]
[1]
  folding stability dG unfold: 6.86 ± 0.201 kJ/mol
[2]
  folding stability dG unfold: 8.12 ± 0.628 kJ/mol
[3]
  folding stability dG unfold: 8.61 ± 0.46 kJ/mol

— the supplement of paper PMC12764529
